Experimental findings from publication PMC8635971, “A nanocompartment system contributes to defense against oxidative stress in Mycobacterium tuberculosis” (eLife, 2021) are described below.

By stoichiometry N is commonly meant the number of molecules, sites or subunits per partner or assembly.

This series deals with the molecule itself. Kind of series: SDS-PAGE of unboiled (native state) samples.

B1: unencapsulated (naked) DyP purified from E. coli (enzyme)
chain: MAVPAVSPQPILAPLTPAAIFLVATIGADGEATVHDALSKISGLVRAIGFRDPTKHLSVVVSIGSDAWDRLFAGPRPTELHPFVELTGPRHTAPATPGDLLFHIRAETMDVCFELAGRILKSMGDAVTVVDEVHGFRFFDNRDLLGFVDGTENPSGPIAIKATTIGDEDRNFAGSCYVHVQKYVHDMASWESLSVTEQERVIGRTKLDDIELDDNAKPANSHVALNVITDDDGTERKIVRHNMPFGEVGKGEYGTYFIGYSRTPTVTEQMLRNMFLGDPAGNTDRVLDFSTAVTGGLFFSPTIDFLDHPPPLPQAATPTLAAGSLSIGSLKGSPR
notes: dye-decolorizing peroxidase DyP, Rv0799c, Mycobacterium tuberculosis; Tetramer seen after addition of hemin; The methods say the SUMO tag was removed; the results call the protein SUMO-tagged; A tetramer of 144 kDa would fit an untagged monomer of about 36 kDa (surmise); also called free DyP; SUMO-tagged unencapsulated DyP
Consider B1, for which the “stoichiometry N” value is 4.
